Here are results for 14 molecules from patent US20120277286A1, “COMPOSITIONS AND METHODS FOR THE TREATMENT OR PREVENTION OF MITOCHONDRIAL DISEASES” (The Government of the USA, as represented by the Secretary, …, priority 2009, published 2012).

This assay has as its system HeLa cells. As to the kind of experiment: Parkin colocalization with mitochondria scored by confocal microscopy. The class given is cell-based. Particulars: for effect on CCCP-induced Parkin recruitment to mitochondria: HeLa cells expressing YFP-Parkin, added together with CCCP; for cells with Parkin localized to mitochondria: HeLa transfected with Flag-tagged Twinkle for 5 days; for spontaneous translocation of mutant YFP-Parkin to mitochondria: without CCCP; for recruitment of mutant YFP-Parkin to mitochondria: 10 μM CCCP, 24 hours; for recruitment of mutant YFP-Parkin to depolarized mitochondria: CCCP 1 hr. On the procedure: Cultured cells seeded in borosilicate chamber slides (Thermo Fisher Scientific) were transfected or cotransfected with YFP-Parkin, ECFP-Parkin, mCherry-Parkin, DsRed-Mito (Clontech Laboratories, Inc.), pcDNA3.1 (Invitrogen), vMIA, and/or Drp1K38A constructs using Fugene 6 (Roche). Parkin-myc was a gift from M. Cookson (National Institutes of Health, Bethesda, Md.). Cells were fixed 12-24 hours after transfection with 4% paraformaldehyde in PBS. Cells were stained with following primary antibodies: mouse monoclonal cytochrome c (BD), rabbit polyclonal Tom20 (Santa Cruz Biotechnology, Inc.), mouse monoclonal Parkin PRK8 (Santa Cruz Biotechnology, Inc.), rabbit polyclonal PMP70 (Invitrogen), and/or mouse monoclonal TRAP1 (Abcam); and with the following secondary antibodies: mouse and/or rabbit Alexa 488, 594, and 633 (Invitrogen). For assessment of mitochondrial membrane potential, cells were pulsed with 50 nM Mito-Tracker red (Invitrogen) for 15 min, washed, and incubated for an additional 10 minutes before fixation or imaging. For assessment of cell metabolic potential, cell nuclei were stained with Hoechst 33342 (Invitrogen).
Fixed cells and live cells in the FLIP assay were imaged using an inverted microscope (LSM510 Meta; Carl Zeiss, Inc.) with a 63×/1.4 oil DIC Plan Apo objective at 25° C. and 37° C., respectively. For the FLIP assay, a bleach region of interest (ROI) occupying approximately one eighth of the cell was positioned over a relatively mitochondria-free portion of the cytosol. Cells were alternately bleached (488 nm using a 30-mW argon laser at 75% power and 100% transmission for 150 iterations) and imaged (488 nm at 75% power and 2% transmission) for 10 minutes (—60 cycles over the length of the experiment). Two channel prebleach and postbleach images were obtained with 488 and 594 lasers to assess the position of mitochondria before and after bleaching. Circular ROIs with diameters of ˜1 and 5 μm, respectively, were placed over the mitochondria and cytosol of the target cell, and an ROI of 10 μm was placed over the control cell. Imaging of YFP-Parkin translocation in live HeLa cells was performed on a live cell imager system (UltraView LCI; PerkinElmer) at 35° C. with a 100×/1.45 α-Plan-Fluor objective.
Image contrast and brightness were adjusted in Photoshop (Adobe). Colocalization was assessed with line scans using MetaMorph (MDS Analytical Technologies). For analysis of mitochondrial membrane potential in cells, mitochondrial voxels in each image (the cytochrome c channel threshold was ≧400 au) were segregated into Parkin-positive (the YFP-Parkin channel threshold was ≧1,100 au) or Parkin-negative subsets, and MitoTracker intensity for each voxel was measured using Volocity software (Improvision). For each cell, the mean MitoTracker intensity per voxel was calculated for the Parkin-positive and Parkin-negative subsets. The difference in mean Mito-Tracker intensity between the Parkin-positive and Parkin-negative subsets was calculated using a paired t test. Western blotting HeLa cells stably expressing YFP-Parkin, HEK293 cells, and rat cortical neurons 2 days in vitro were harvested and fractionated as described previously (Karbowski et al., J. Cell Biol. 178: 71-84, 2007). Samples were run on SDS-PAGE and immunoblotted with the following antibodies: polyclonal rabbit anti-GFP (Invitrogen), mouse monoclonal anti-Parkin (PRK8), and mouse monoclonal anti-Porin 31HL (EMD).
Confocal microscopy of fixed samples, scoring of Parkin recruitment and Parkininduced mitophagy, and live cell imaging were performed as described previously (Narendra (2008) J Cell Biol 183: 795-803). Experiments in Mfn1/2 null cells were performed as described previously with minor modifications.
Confocal microscopy of fixed samples, scoring of Parkin recruitment and Parkin-induced mitophagy, and live cell imageing were performed as described previously (Narendra (2008) J Cell Biol 183: 795-803). […]

Substitutions are numbered along the chain they refer to. Numbers in names are those of the source. *1 amine or outer side, *2 acyl side, *3 side chain or, on linkers, in order; H or OH if unused. Where a SMILES comes first, the peptide text is derived from it. Bridges are numbered along the chain shown (N, C = ends). Roman numbers before positions name the chains, in order. [ ]: non-standard residue; d: D form. Actinocin(9to1) = Cc1c2oc3c(C)ccc(C(=O)[*:1])c3nc-2c(C(=O)[*:2])c(N)c1=O; NMeV = CN[C@H](C(=O)O)C(C)C; Sar = CNCC(=O)O

Turning to `CC(=O)N[C@@H](CS)C(=O)O` [N-acetyl-cysteine, reference compound], the “effect on CCCP-induced Parkin recruitment to mitochondria” value is given as “not blocked”.
On the same count and under the same terms, the value for `Cc1c2oc3c(C)ccc(C(=O)N[C@@H]4C(=O)N[C@H](C(C)C)C(=O)N5CCC[C@H]5C(=O)N(C)CC(=O)N(C)[C@@H](C(C)C)C(=O)O[C@@H]4C)c3nc-2c(C(=O)N[C@@H]2C(=O)N[C@H](C(C)C)C(=O)N3CCC[C@H]3C(=O)N(C)CC(=O)N(C)[C@@H](C(C)C)C(=O)O[C@@H]2C)c(N)c1=O` [actinomycin D, reference compound] (I: T[dV]P[Sar][NMeV] / II: T[dV]P[Sar][NMeV]; ester I:1-I:C, II:1-II:C; linker I:N-II:N via Actinocin(9to1)) was “modest effect”.
Turning to `CC[C@H]1/C=C/C=C/C[C@@H](C)[C@H](O)[C@@](C)(O)C(=O)[C@@H](C)[C@H](O)[C@@H](C)C(=O)[C@@H](C)[C@H](O)[C@@H](C)/C=C/C(=O)O[C@@H]2[C@H](C)[C@H](CC1)O[C@]1(CC[C@H](C)[C@H](C[C@@H](C)O)O1)[C@H]2C` [oligomycin, reference compound], the “effect on CCCP-induced Parkin recruitment to mitochondria” value is “not inhibited”. Further, the “YFP-Parkin colocalization with mitochondria, % of cells” value (HeLa cells, 10 μM CCCP+10 μM oligomycin, 1 hour) is 77.35±7.64%.

B1: PINK1-YFP: YFP fused to PINK1 (protein, UniProt Q9BXM7 78-581, looked up)
Serine/threonine-protein …: AARLQRQFVVRAWGCAGPCGRAVFLAFGLGLGLIEEKQAESRRAVSACQEIQAIFTQKSKPGPDPLDTRRLQGFRLEEYLIGQSIGKGCSAAVYEATMPTLPQNLEVTKSTGLLPGRGPGTSAPGEGQERAPGAPAFPLAIKMMWNISAGSSSEAILNTMSQELVPASRVALAGEYGAVTYRKSKRGPKQLAPHPNIIRVLRAFTSSVPLLPGALVDYPDVLPSRLHPEGLGHGRTLFLVMKNYPCTLRQYLCVNTPSPRLAAMMLLQLLEGVDHLVQQGIAHRDLKSDNILVELDPDGCPWLVIADFGCCLADESIGLQLPFSSWYVDRGGNGCLMAPEVSTARPGPRAVIDYSKADAWAVGAIAYEIFGLVNPFYGQGKAHLESRSYQEAQLPALPESVPPDVRQLVRALLQREASKRPSARVAANVLHLSLWGEHILALKNLKLDKMVGWLLQQSAATLLANRLTEKCCVETKMKMLFLANLECETLCQAALLLCSWRAAL
modifications: YFP fusion
In the case of B1, the “cells with mCherry-Parkin recruited to mitochondria” value (HeLa, co-expression, absence of CCCP) is reported as 57.9±1.8%.

B2: Twinkle G575D: catalytically inactive mutant of mitochondrial DNA helicase Twinkle, Flag-tagged (protein, UniProt Q96RR1 32-684, looked up, variant G575D)
Twinkle mtDNA helicase: APGPPRRRYRKETLQALDMPVLPVTATEIRQYLRGHGIPFQDGHSCLRALSPFAESSQLKGQTGVTTSFSLFIDKTTGHFLCMTSLAEGSWEDFQASVEGRGDGAREGFLLSKAPEFEDSEEVRRIWNRAIPLWELPDQEEVQLADTMFGLTKVTDDTLKRFSVRYLRPARSLVFPWFSPGGSGLRGLKLLEAKCQGDGVSYEETTIPRPSAYHNLFGLPLISRRDAEVVLTSRELDSLALNQSTGLPTLTLPRGTTCLPPALLPYLEQFRRIVFWLGDDLRSWEAAKLFARKLNPKRCFLVRPGDQQPRPLEALNGGFNLSRILRTALPAWHKSIVSFRQLREEVLGELSNVEQAAGLRWSRFPDLNRILKGHRKGELTVFTGPTGSGKTTFISEYALDLCSQGVNTLWGSFEISNVRLARVMLTQFAEGRLEDQLDKYDHWADRFEDLPLYFMTFHGQQSIRTVIDTMQHAVYVYDICHVIIDNLQFMMGHEQLSTDRIAAQDYIIGVFRKFATDNNCHVTLVIHPRKEDDDKELQTASIFDSAKASQEADNVLILQDRKLVTGPGKRYLQVSKNRFDGDVGVFPLEFNKNSLTFSIPPKNKARLKKIKDDTGPVAKKPSSGKKGATTQNSEICSGQAPTPDQPDTSKRSK
modifications: Flag tag
For B2, the “cells with Parkin localized to mitochondria” value is 13.1±2.3%.

B3: wild-type Twinkle: Flag-tagged wild-type mitochondrial DNA helicase Twinkle (protein, UniProt Q96RR1 32-684, looked up)
Twinkle mtDNA helicase: B2 Twinkle mtDNA helicase with D544G
modifications: Flag tag
On to B3, for which the “cells with Parkin localized to mitochondria” value is reported as 6.7±1.2%.

B4: T175E: phosphomimetic YFP-Parkin mutant (protein, UniProt O60260 1-465, looked up, variant T175E)
E3 ubiquitin-protein ligase …: MIVFVRFNSSHGFPVEVDSDTSIFQLKEVVAKRQGVPADQLRVIFAGKELRNDWTVQNCDLDQQSIVHIVQRPWRKGQEMNATGGDDPRNAAGGCEREPQSLTRVDLSSSVLPGDSVGLAVILHTDSRKDSPPAGSPAGRSIYNSFYVYCKGPCQRVQPGKLRVQCSTCRQATLELTQGPSCWDDVLIPNRMSGECQSPHCPGTSAEFFFKCGAHPTSDKETSVALHLIATNSRNITCITCTDVRSPVLVFQCNSRHVICLDCFHLYCVTRLNDRQFVHDPQLGYSLPCVAGCPNSLIKELHHFRILGEEQYNRYQQYGAEECVLQMGGVLCPRPGCGAGLLPEPDQRKVTCEGGNGLGCGFAFCRECKEAYHEGECSAVFEASGTTTQAYRVDERAAEQARWEAASKETIKKTTKPCPRCHVPVEKNGGCMHMKCPQPQCRLEWCWNCGCEWNRVCMGDHWFDV
modifications: YFP fusion
notes: phosphomimetic YFP-Parkin mutant
With B4, the “spontaneous translocation of mutant YFP-Parkin to mitochondria” value (“spontaneous translocation” below) (HeLa) is “did not translocate to mitochondria spontaneously”.

B5: C289G: YFP-Parkin patient mutation in conserved RING cysteine (protein, UniProt O60260 1-465, looked up, variant C289G)
E3 ubiquitin-protein ligase …: B4 E3 ubiquitin-protein ligase … with E175T, C289G
modifications: YFP fusion
notes: YFP-Parkin patient mutation in conserved RING cysteine
In the case of B5, where the note is “HeLa”, the “recruitment of mutant YFP-Parkin to mitochondria” value was “Mitochondrial recruitment was seen” and the “recruitment of mutant YFP-Parkin to depolarized mitochondria” value (shortened to “recruitment … to depolarized mitochondria”) is “completely disrupt”.

B6: C441R: YFP-Parkin patient mutation in conserved RING cysteine (protein, UniProt O60260 1-465, looked up, variant C441R)
E3 ubiquitin-protein ligase …: B4 E3 ubiquitin-protein ligase … with E175T, C441R
modifications: YFP fusion
notes: as for B5
In the case of B6, where the note is “HeLa”, the “recruitment of mutant YFP-Parkin to mitochondria” value is “Mitochondrial recruitment was seen” and the “recruitment … to depolarized mitochondria” value is listed as “completely disrupt”.

B7: T175, 217E: double phosphomimetic YFP-Parkin mutant (protein, UniProt O60260 1-465, looked up, variant T175E T217E)
E3 ubiquitin-protein ligase …: B4 E3 ubiquitin-protein ligase … with T217E
modifications: YFP fusion
notes: double phosphomimetic YFP-Parkin mutant
Regarding B7, the “spontaneous translocation” value (HeLa) is given as “did not translocate to mitochondria spontaneously”.

B8: I44A: YFP-Parkin with engineered UBL mutation (protein, UniProt O60260 1-465, looked up, variant I44A)
E3 ubiquitin-protein ligase …: B4 E3 ubiquitin-protein ligase … with I44A, E175T
modifications: YFP fusion
notes: YFP-Parkin with engineered UBL mutation
B8: the “recruitment … to depolarized mitochondria” value (HeLa) is recorded as “moderate deficit”.

B9: T217E: phosphomimetic YFP-Parkin mutant (protein, UniProt O60260 1-465, looked up, variant T217E)
E3 ubiquitin-protein ligase …: B4 E3 ubiquitin-protein ligase … with E175T, T217E
modifications: YFP fusion
notes: as for B4
As to B9, the “spontaneous translocation” value (HeLa) is on record as “did not translocate to mitochondria spontaneously”.

B10: C212Y: YFP-Parkin patient mutation in conserved RING-like region (protein, UniProt O60260 1-465, looked up, variant C212Y)
E3 ubiquitin-protein ligase …: B4 E3 ubiquitin-protein ligase … with E175T, C212Y
modifications: N-terminal YFP fusion
notes: YFP-Parkin patient mutation in conserved RING-like region
As to B10, for the setting “HeLa”, the “recruitment … to depolarized mitochondria” value is reported as “blocked”.

B11: C253Y: YFP-Parkin patient mutation in conserved RING cysteine (protein, UniProt O60260 1-465, looked up, variant C253Y)
E3 ubiquitin-protein ligase …: B4 E3 ubiquitin-protein ligase … with E175T, C253Y
modifications: YFP fusion
notes: as for B5
Consider B11, for which the “recruitment … to depolarized mitochondria” value (HeLa) was “completely disrupt”.
